{"source": "patent US20210147536A1", "about": "(MAB VENTURE BIOPHARM, published 2021)", "binders": {"B1": {"name": "anti-human LAG-3 full human monoclonal antibody MV705-3 (antibody, human IgG4, V domains shown)", "VH": "EVQLLESGAEVKKPGASVKVSCKASGYTFTSYGISWVRQAPGQGLEWMGWISAYNGNTNYAQKLQGRVTMTTDTSTSTAYMELRSLRSDDTAVYYCARDGWWELLRPDDAFDIWGQGTTVTVSS", "VL": "QLVLTQSPSVSVSPGQTASITCSGDKLGDKYAYWYQQKPGQAPVLVIYYDSDRPSGIPERFSGSNSGNTATLTISRVEAGDEADYYCQVWDSSSDQVVFGGGTQLTVLG", "notes": "Full IgG4 with lambda light chain; also called MV705-3(DD + DD)"}}, "key": {"[1]": {"target": "T1, human LAG-3 on the cell surface (human, UniProt P18627 23-525)", "T1 construct": "whole, on cells; also called cells expressing the human LAG-3", "T1 sequence (looked up)": "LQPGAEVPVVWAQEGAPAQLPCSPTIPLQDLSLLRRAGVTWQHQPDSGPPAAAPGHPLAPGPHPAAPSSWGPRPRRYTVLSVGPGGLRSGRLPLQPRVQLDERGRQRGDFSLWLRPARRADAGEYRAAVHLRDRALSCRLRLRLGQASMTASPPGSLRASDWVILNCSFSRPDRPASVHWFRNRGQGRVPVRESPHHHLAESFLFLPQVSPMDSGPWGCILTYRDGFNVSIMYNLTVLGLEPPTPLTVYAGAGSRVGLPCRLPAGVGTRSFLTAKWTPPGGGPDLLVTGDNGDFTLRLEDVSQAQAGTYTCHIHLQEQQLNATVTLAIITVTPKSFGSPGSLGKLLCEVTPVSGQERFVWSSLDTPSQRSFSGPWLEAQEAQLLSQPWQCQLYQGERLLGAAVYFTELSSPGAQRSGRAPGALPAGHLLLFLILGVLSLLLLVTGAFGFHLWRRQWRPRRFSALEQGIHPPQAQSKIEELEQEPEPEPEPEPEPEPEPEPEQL", "assay": "flow cytometry on cells expressing the human LAG-3, PE anti-human IgG; N = 4"}, "[2]": {"target": "T2, human LAG-3-6*His tag recombinant fusion protein (human, UniProt P18627 23-450, biotin-labelled in panning and in Example 9)", "T2 construct": "Bought protein; also called hLAG-3-6*his tag recombinant protein; human LAG-3-his tag recombinant fusion protein", "T2 sequence": "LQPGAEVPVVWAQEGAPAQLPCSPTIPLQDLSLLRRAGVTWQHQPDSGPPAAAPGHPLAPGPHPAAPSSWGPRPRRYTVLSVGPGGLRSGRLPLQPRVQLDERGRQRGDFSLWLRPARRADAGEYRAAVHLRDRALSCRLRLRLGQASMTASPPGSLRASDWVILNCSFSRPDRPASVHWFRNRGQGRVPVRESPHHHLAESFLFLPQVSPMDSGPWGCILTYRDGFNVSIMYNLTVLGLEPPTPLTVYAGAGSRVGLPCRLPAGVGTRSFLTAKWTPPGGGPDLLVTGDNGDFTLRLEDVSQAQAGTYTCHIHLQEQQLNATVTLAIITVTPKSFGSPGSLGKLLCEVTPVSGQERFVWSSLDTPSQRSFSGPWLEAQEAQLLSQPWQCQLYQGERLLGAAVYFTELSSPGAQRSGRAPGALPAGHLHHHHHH", "assay": "BLI (Octet Red96), biotinylated hLAG-3-6*his on SA biosensor, antibody 100 µg/mL in solution, 1:2 binding model"}, "[3]": {"target": "T3, recombinant mouse LAG-3-6*His tag fusion protein (mouse, UniProt Q61790 23-442)", "T3 construct": "made in Expi293 cells from the mouse LAG-3 cDNA; also called mouse LAG-3 antigen", "T3 sequence": "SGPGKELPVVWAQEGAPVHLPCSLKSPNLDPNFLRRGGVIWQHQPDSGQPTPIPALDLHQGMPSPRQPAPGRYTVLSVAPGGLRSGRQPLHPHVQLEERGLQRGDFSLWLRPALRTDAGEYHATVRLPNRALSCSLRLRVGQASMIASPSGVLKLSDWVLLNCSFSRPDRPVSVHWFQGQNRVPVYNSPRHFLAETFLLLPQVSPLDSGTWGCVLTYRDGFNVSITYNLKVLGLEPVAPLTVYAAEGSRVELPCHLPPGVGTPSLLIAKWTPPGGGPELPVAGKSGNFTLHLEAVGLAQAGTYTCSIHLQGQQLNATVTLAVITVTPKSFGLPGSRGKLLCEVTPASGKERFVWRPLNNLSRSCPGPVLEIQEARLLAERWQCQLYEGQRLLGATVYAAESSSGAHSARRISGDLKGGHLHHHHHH", "assay": "ELISA, antibody coated at 1 µg/ml, mouse LAG-3-6*His titrated, anti-His HRP"}, "[4]": {"target": "T4, recombinant Macaca fascicularis LAG-3-6*His tag fusion protein (Macaca fascicularis)", "T4 construct": "Bought protein; also called Macaca fascicularis LAG-3 antigen", "assay": "ELISA, antibody coated at 1 µg/ml, Macaca fascicularis LAG-3-6*His titrated, anti-His HRP"}, "[5]": {"target": "T2, human LAG-3-6*His tag recombinant …", "assay": "BLI (Octet Red96), biotinylated hLAG-3-6*his on SA biosensor, antibody 100 µg/mL in solution, 1:2 binding model", "remark": "listed apart in the source"}, "[6]": {"target": "T2, human LAG-3-6*His tag recombinant …", "assay": "BLI Octet Red96, MV705-3 on AHC sensor, human LAG-3-6*His at 250 nM, 1:1 model"}, "[7]": {"target": "T2, human LAG-3-6*His tag recombinant …", "assay": "ELISA as in Example 4 (antibody coated, human LAG-3-6*His titrated); N = 5"}, "[8]": {"target": "T1, human LAG-3 on the cell surface", "assay": "cell-based or functional assay"}, "[9]": {"target": "T2, human LAG-3-6*His tag recombinant …", "assay": "BLI (Octet Red96), biotinylated hLAG-3-6*his on SA biosensor, antibody 100 µg/mL in solution, 1:2 binding model", "remark": "listed apart in the source"}, "[10]": {"target": "T2, human LAG-3-6*His tag recombinant …", "assay": "BLI Octet Red96, MV705-3 on AHC sensor, human LAG-3-6*His at 1000 nM, 1:1 model"}, "[11]": {"target": "T2, human LAG-3-6*His tag recombinant …", "assay": "ELISA, human LAG-3-6*His coated at 1 µg/ml, IgG4 titrated, anti-hIgG HRP"}}, "data": [{"binder": "B1", "values": [{"measurement": "EC50", "setting": "[1]", "result": 0.0023, "unit": "µg/mL"}, {"measurement": "Kd", "setting": "[2]", "result": 3.04, "unit": "nM"}, {"measurement": "koff", "setting": "[2]", "result": 0.000373, "unit": "s⁻¹"}, {"measurement": "kon", "setting": "[2]", "result": 122000, "unit": "M⁻¹ s⁻¹"}, {"measurement": "EC50", "setting": "[3]", "result": 2.6, "unit": "µg/mL"}, {"measurement": "EC50", "setting": "[4]", "result": 0.11, "unit": "µg/mL"}, {"measurement": "Kd", "setting": "[5]", "result": 4.83, "unit": "nM"}, {"measurement": "koff", "setting": "[5]", "result": 0.000442, "unit": "s⁻¹"}, {"measurement": "kon", "setting": "[5]", "result": 91600, "unit": "M⁻¹ s⁻¹"}, {"measurement": "koff", "setting": "[6]", "result": "< 1e-07", "unit": "s⁻¹"}, {"measurement": "kon", "setting": "[6]", "result": 13800, "unit": "M⁻¹ s⁻¹"}, {"measurement": "EC50", "setting": "[7]", "result": 0.039, "unit": "µg/mL"}, {"measurement": "EC50 of NFAT reporter gene induction (bio-glo luciferase), LAG3/NFAT Reporter-Jurkat + Raji cells + superantigen", "setting": "[8]", "result": 0.04, "unit": "µg/mL"}, {"measurement": "Kd", "setting": "[9]", "result": 4.83, "unit": "nM"}, {"measurement": "koff", "setting": "[9]", "result": 0.000442, "unit": "s⁻¹"}, {"measurement": "kon", "setting": "[9]", "result": 91600, "unit": "M⁻¹ s⁻¹"}, {"measurement": "Kd", "setting": "[10]", "result": 1.79, "unit": "nM"}, {"measurement": "koff", "setting": "[10]", "result": 0.000106, "unit": "s⁻¹"}, {"measurement": "kon", "setting": "[10]", "result": 59300, "unit": "M⁻¹ s⁻¹"}, {"measurement": "EC50", "setting": "[11]", "result": 0.364, "unit": "µg/mL"}]}]}
